# From patent US20200399385A1 (Bristol-Myers Squibb, published 2020)
# T1: human OX40 on cells (human, UniProt P43489 29-277)
# T1 sequence: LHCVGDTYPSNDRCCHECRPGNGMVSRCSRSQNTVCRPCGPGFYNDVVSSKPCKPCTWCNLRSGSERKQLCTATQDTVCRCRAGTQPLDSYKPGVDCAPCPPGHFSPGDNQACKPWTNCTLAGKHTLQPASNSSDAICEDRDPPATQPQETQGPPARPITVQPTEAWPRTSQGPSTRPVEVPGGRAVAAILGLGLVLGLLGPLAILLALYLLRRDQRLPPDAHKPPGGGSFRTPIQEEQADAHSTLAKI
# T2: cynomolgus OX40 on cells (cynomolgus, UniProt P43489 29-277 (human entry))
# T2 construct: also called cynoOX40-CHO
# T2 chain: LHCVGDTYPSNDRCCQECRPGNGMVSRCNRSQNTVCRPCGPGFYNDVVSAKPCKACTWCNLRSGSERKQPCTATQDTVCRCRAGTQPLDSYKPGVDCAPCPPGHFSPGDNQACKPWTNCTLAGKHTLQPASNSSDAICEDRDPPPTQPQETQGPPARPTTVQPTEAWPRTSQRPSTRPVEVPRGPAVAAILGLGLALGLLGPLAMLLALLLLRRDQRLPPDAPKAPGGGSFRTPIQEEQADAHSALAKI
# T3: his-tagged soluble human OX40 (huOX40-6xhis) (human, UniProt P43489 29-214)
# T3 construct: made in-house; also called Human-OX40-6XHIS; hOX40; not shown: hexahistidine tag
# T3 sequence: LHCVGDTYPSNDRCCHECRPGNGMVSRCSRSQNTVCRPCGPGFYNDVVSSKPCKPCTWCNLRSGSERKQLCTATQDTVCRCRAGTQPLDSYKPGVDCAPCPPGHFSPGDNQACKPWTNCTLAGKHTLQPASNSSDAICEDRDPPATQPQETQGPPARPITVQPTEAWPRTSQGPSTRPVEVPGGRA
# How the values were obtained:
# human OX40 on cells [1] = target: T1, human OX40 on cells; experiment: cell-based or functional assay
# cynomolgus OX40 on cells [2] = target: T2, cynomolgus OX40 on cells; experiment: FACS, activated cyno T cells; mean ± SD, n=4
# Procedure: (§1) Briefly, cells were activated for several days before the binding assay in order to induce OX40 expression. Total leukocytes were isolated from cynomolgus macaque peripheral blood by lysis of red blood cells using an ammonium chloride buffer. The leukocytes were then cultured for four to five days with in flasks pre-coated with anti-human CD3 plus anti-human CD28 antibodies that cross-react with cynomolgus macaque, in the presence of recombinant human IL-2, in order to expand and activate T cells. On the day of the assay, the cells were harvested and stained with a titration of each anti-OX40 antibody. Bound antibodies were detected with a fluorescently conjugated anti-human IgG polyclonal secondary antibody, and the cells were co-stained for CD4 and CD25 to detect activated CD4 T cells. The fluorescence intensity of the staining was measured using a FACSCanto II flow cytometer (Becton Dickinson). The geometric mean fluorescence intensity (GMFI) or median fluorescence intensity (MedFI) of anti-OX40 antibody staining was calculated for the CD4+CD25+ population (FACSDiva software). Dose-response curves were generated and EC50s for antibody binding were calculated using GraphPad Prism software.
# human OX40 on cells [3] = target: T1, human OX40 on cells; experiment: FACS, activated human T cells; mean ± SD, n=2
# Procedure: (§2) Cells were activated for several days before the binding assay in order to induce OX40 expression. Briefly, PBMCs were cultured for three or four days with magnetic beads coated with anti-human CD3 plus anti-human CD28, in the presence of recombinant human IL-2. On the day of the assay, the beads were removed and the cells stained with a titration of each anti-OX40 antibody. Bound antibodies were detected with a fluorescently conjugated anti-human IgG polyclonal secondary antibody, and the cells were co-stained for CD4 and CD25 to detect activated CD4 T cells. The fluorescence intensity of the staining was measured using a FACSCanto II flow cytometer (Becton Dickinson). The geometric mean fluorescence intensity (GMFI) or median fluorescence intensity (MedFI) of anti-OX40 antibody staining was calculated for the CD4+CD25+ population (FACSDiva software). EC₅₀s for antibody binding were calculated using GraphPad Prism software.
# [4] = target: T3, his-tagged soluble human OX40 …; experiment: SPR, mAb captured on anti-human CH1, OX40-6XHIS analyte, 1:1 fit
# Procedure: The affinity of several OX40 antibodies for soluble human OX40 was tested by SPR analysis. […] Human-OX40-6XHIS antigen in either a single concentration of 400 nM or a 1:2 serial dilution from 400 nM was used. Experiments were carried out on BIACORE® T200 or BIACORE® 3000 SPR instruments. Data was fit to a 1:1 model.
# human OX40 on cells [5] = target: T1, human OX40 on cells; experiment: FACS, blocking of OX40L-His (0.2 µg/mL) binding to hOX40-293 cells
# Procedure: Briefly, 293 cells stably transfected with human OX40 were first pre-incubated with varying concentrations of anti-OX40 antibodies. […] The fluorescence intensity of the staining was measured using a FACSCanto II flow cytometer (Becton Dickinson).
# human OX40 on cells [6] = target: T1, human OX40 on cells; experiment: FACS competition on HT1080-hOX40 cells against APC-OX40.1 (FL2 MFI); the table gives no unit, axis 'Ab conc nM'
# Procedure: (§3) This experiment was performed to test the cross-blocking properties of various anti-OX40 antibodies to assess binding specificities. […] Cells were washed and if necessary further incubated in the presence of streptavidin-APC conjugate under the same conditions. After the final wash, cells were analyzed on a FACSCanto flow cytometer (BD Bioscience, San Jose, Calif.). Mean fluorescence intensity (MFI) signal was proportional to bound conjugated antibody.
# human OX40 on cells [7] = target: T1, human OX40 on cells; experiment: FACS, activated human T cells; mean ± SD, n=3
# Procedure: as §2
# human OX40 on cells [8] = target: T1, human OX40 on cells; experiment: FACS competition on hOX40-293 cells against biotin-OX40.5 (spike biotOX.5 @ 0.4 ug/mL, streptavidin-APC); FL4-MFI falls from about 8700 to about 4100; the table gives no unit, axis in nM
# Procedure: as §3
# human OX40 on cells [9] = target: T1, human OX40 on cells; experiment: cell-based or functional assay; remark: listed apart in the source
# cynomolgus OX40 on cells [10] = target: T2, cynomolgus OX40 on cells; experiment: FACS, activated cyno T cells; mean ± SD, n=3
# Procedure: as §1
# human OX40 on cells [11] = target: T1, human OX40 on cells; experiment: FACS, activated primary human CD4+/CD25+ T cells, purified recombinant antibody, fluorescent anti-human IgG secondary (APC GMFI)
# Procedure: as §2
# cynomolgus OX40 on cells [12] = target: T2, cynomolgus OX40 on cells; experiment: FACS, activated primary cynomolgus macaque CD4+/CD25+ T cells, purified recombinant antibody, fluorescent anti-human IgG secondary (APC GMFI)
# Procedure: as §1
# The same experiment was performed with anti-OX40 antibodies with variable region substitutions.
# human OX40 on cells [13] = target: T1, human OX40 on cells; experiment: FACS competition on hOX40-293 cells against biotin-OX40.5 (spike biotOX.5 @ 0.4 ug/mL, streptavidin-APC); partial inhibition, FL4-MFI falls from about 8700 to about 6400; the table gives no unit, axis in nM
# Procedure: as §3
# human OX40 on cells [14] = target: T1, human OX40 on cells; experiment: FACS competition on HT1080-hOX40 cells against APC-OX40.1 (FL2 MFI); the table gives no unit, axis 'Ab conc nM'; NOTE: the curve of this antibody is flat at about 18000 (no inhibition), the printed fit value has no meaning as a potency
# Procedure: as §3
Binder,"Proliferation EC50, CD4 T cells + CHO-CD3-CD32A (human OX40 on cells [1]) [pM]",EC50 (cynomolgus OX40 on cells [2]) [pM],EC50 (human OX40 on cells [3]) [pM],Kd [4] [pM],koff [4] [s⁻¹],kon [4] [M⁻¹ s⁻¹],EC50 (human OX40 on cells [5]) [pM],IC50 (human OX40 on cells [6]) [pM],EC50 (human OX40 on cells [7]) [pM],"IFNγ EC50, CD4 T cells + CHO-CD3-CD32A (human OX40 on cells [1]) [pM]","IL-2 EC50, SEB PBMC, donor BMS-001 (human OX40 on cells [9]) [pM]","IL-2 EC50, SEB PBMC, donor BMS-004 (human OX40 on cells [9]) [pM]","IL-2 EC50, SEB PBMC, donor BMS-009 (human OX40 on cells [9]) [pM]","IL-2 EC50, SEB PBMC, donor BMS-012 (human OX40 on cells [9]) [pM]","IL-2 EC50, SEB PBMC, donor BMS-015 (human OX40 on cells [9]) [pM]","IL-2 EC50, SEB PBMC, donor BMS-016 (human OX40 on cells [9]) [pM]","IL-2 EC50, SEB PBMC, donor WB10024 (human OX40 on cells [9]) [pM]","IL-2 EC50, SEB PBMC, donor WB10025 (human OX40 on cells [9]) [pM]","IL-2 EC50, SEB PBMC, donor WB10026 (human OX40 on cells [9]) [pM]","IL-2 EC50, SEB PBMC, donor WB10027 (human OX40 on cells [9]) [pM]",further results
"8B11 (antibody, V domains shown, also called 8B11.H9.C1; 8B11.H9) VH: EIQLVQSGGGLVHPGGSLRLSCAGSGFTFSSDAMYWVRQAPGKGLEWVSAIGIGGDTYYTDSVMGRFTISRDNAKNSLYLQMNSLRAEDMAVYYCARLGMGYYFDYWGQGTLVTVSS VL: not shown",22,200,140,10500,0.00051,48000,450,1410,,,,,,,,,,,,,
"23H3 (antibody, V domains shown, also called 23H3.C6) VH: EVQLVQSGGGLVHPGGSLRLSCAGSGFTFSNYAMYWVRQAPGKGLEWVSAIGIGGDTFYTDSVKGRFTISRDNAKNSLSLQMNSLRAEDMAVYYCARMGTGYFFDYWGQGTLVTVSS VL: EIVLTQSPATLSLSPGERATLSCRASQSVSSYLAWYQQKPGQAPRLLIYDASNRATGIPARFSGSGSGTDFTLTISSLEPEDFAVYYCQQRSNWPLTFGPGTKVDIK",28,180,,3600,0.000395,110000,380,,150,,,,,,,,,,,,EC50 (human OX40 on cells [8]): 3680 pM
"OX40.17 (antibody, human IgG1, kappa, V domains shown) VH: EVQLVESGGGLVQPGGSLRLSCAASGFTFSSYDMHWVRQTTGKGLEWVSVIGTAGDTYYPGSVKGRFTISRENAKNSLYLQMNSLRAGDTAVYYCARGGMGNYFDYWGQGTLVTVSS VL: EIVLTQSPATLSLSPGERATLSCRASQSVSSYLAWYQQKPGQAPRLLIYDASNRATGIPARFSGSGSGTDFTLTISSLEPEDFAVYYCQQRSNWPLTFGGGTKVEIKR",9,,,,,,,,260,44,410,1030,970,1740,1160,1400,1060,1350,1680,1150,"IL-2 EC50, SEB PBMC, donor WB10137 (human OX40 on cells [9]): 920 pM; IL-2 Mean EC50, SEB PBMC, all donors (human OX40 on cells [9]): 1170 pM; EC50 (cynomolgus OX40 on cells [10]): 520 pM; EC50 (read off the curve) (human OX40 on cells [11]): ~200 pM; EC50 (read off the curve) (cynomolgus OX40 on cells [12]): ~400 pM"
"3F4 (antibody, V domains shown, also called 3F4.G11.D2; 3F4.G11) VH: QVQLVQSGAEVKKPGASVKVSCKASGNTFTSYDVNWVRQATGQGLEWMGWMNPNSGNTGYAPKFQGRVTMTRNTSISTAYMELSSLRSEDTAVYYCARIYSSSYNWFDPWGQGTLVTVSS VL: EIVLTQSPATLSLSPGERATLSCRASQSVSSYLAWYQQKPGQAPRLLIYDASNRATGIPARFSGSGSGTDFTLTISSLEPEDFAVYYCQQRSNWPLTFGGGTKVEIK",16,370,,7130,0.000379,53100,540,706,190,,,,,,,,,,,,EC50 (human OX40 on cells [13]): 3710 pM
"6E1 (antibody, V domains shown, also called 6E1.A12.A2; 6E1.A12) VH: QVQLVESGGGVVQPGRSLRLSCAASGFTFSSFAMHWVRQAPGKGLEWVTVISYDGSIKYYTDSVKGRFTFSRDNSKNTLYLQMNSLRAEDTAVYYCTRDGNYGSARYFQHWGQGTLVTVSS VL: EIVLTQSPATLSLSPGERATLSCRASQSVSSYLAWYQQKPGQAPRLLIYDASNRATGIPARFSGSGSGTDFTLTISSLEPEDFAVYYCQQRSNWPYTFGQGTKLEIK",14,770,970,11000,0.00141,128000,,,,,,,,,,,,,,,IC50 (human OX40 on cells [14]): ~2.49 pM
"OX40.18 (antibody, human IgG1, kappa, V domains shown, g1f) VH: QVQLVQSGAEVKKPGASVKVSCKASGYTFTSYDVNWVRQATGQGLEWMGWMNPNSGNTGYAPKFQGRVTMTRDTSISTAYMELSSLRSEDTAVYYCARIYSSSYNWFDYWGQGTLVTVSS VL: EIVLTQSPATLSLSPGERATLSCRASQSVSSYLAWYQQKPGQAPRLLIYDASNRATGIPARFSGSGSGTDFTLTISSLEPEDFAVYYCQQRSNWPLTFGGGTKVEIKR",230,,3150,,,,,,,490,~84800,2430,3210,~1670,> 100000,> 100000,~3170,~1140,3020,~3270,"IL-2 EC50, SEB PBMC, donor WB10137 (human OX40 on cells [9]): > 100000 pM; IL-2 Mean EC50, SEB PBMC, all donors (human OX40 on cells [9]): 2890 pM"
